Assay results published in paper PMC12032302, “A20 attenuates oxidized self-DNA-mediated inflammation in acute kidney injury” (Signal Transduction and Targeted Therapy, 2025).

Assays:
[1] = target: T1, recombinant human NEK7 protein (human, UniProt Q8TDX7 1-302); assay: BLI; peptide immobilised on Octet AR2G biosensors at 400 μg/ml for 500 s; recombinant human NEK7 39.0625 to 1250 nM, association 120 s, dissociation 120 s; 1:1 binding model; conditions: both partners purified
T1 construct: NEK7, human, recombinant; source: bought: SinoBiological

[2] = target: T2, HA-NEK7 (mouse NIMA-related kinase 7, wild type) (mouse, UniProt Q9ES74 1-302); assay: BLI; 3×HA-NEK7 (WT or Tri-MUT) purified from HEK293T with HA antibody; legend: P-II diluted into the indicated concentrations; methods: peptide immobilised on AR2G biosensors; 1:1 binding model; conditions: both partners purified
T2 construct: NEK7, mouse, cDNA amplified from a mouse cDNA library; also called WT-NEK7; HA-WT-NEK7; source: HEK293T, transiently transfected, in lysate; for BLI purified with HA antibody, eluted with 0.1 M glycine pH 2.0
T2 sequence (Q9ES74 whole entry): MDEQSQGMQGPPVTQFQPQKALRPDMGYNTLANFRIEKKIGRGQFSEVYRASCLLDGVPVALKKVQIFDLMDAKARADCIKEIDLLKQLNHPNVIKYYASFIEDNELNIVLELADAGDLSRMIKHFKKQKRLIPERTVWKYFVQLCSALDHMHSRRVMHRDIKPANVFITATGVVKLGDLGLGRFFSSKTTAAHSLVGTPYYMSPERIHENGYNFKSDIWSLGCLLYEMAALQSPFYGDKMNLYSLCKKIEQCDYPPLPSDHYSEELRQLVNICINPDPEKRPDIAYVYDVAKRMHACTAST

T1 sequence (Q8TDX7 whole entry): as the sequence (Q9ES74 whole entry) above, with T14P, S52A, D150E, I273M, I285V, A286T, T302S counted along it

B1: A20-derived peptide P-II (peptide)
peptide: KLVALKTNGDGNCLMHAACQYMWGVQDTD
notes: peptide generated according to the OTU domain of A20; also called NEK7 targeting peptide; source: synthetic peptide (constructed by GeneWiz; for BLI: Bootech BioScience &Technology)
- binding result [1]: binds
- binding result [2]: binds
